Experimental data published in patent US20210130436A1 (published 2021).
Substitutions are numbered along the chain they refer to. Names may count otherwise.

B1: variant CD80 IgV-Fc E35D/D46E/M47L/V68M/A71G/Y87C/K93R (Fc fusion, not shown: small tags and cut ends; a dimerising Fc or GST)
chain: VIHVTKEVKEVATLSCGHNVSVEELAQTRIYWQKDKKMVLTMMSGELNIWPEYKNRTIFDITNNLSIMILGLRPSDEGTYECVVLKCEKDAFRREHLAEVTLSVKAD
B2: variant CD80 IgV-Fc Q33L/E35D/M47V/L85Q (Fc fusion, not shown: a dimerising Fc or GST)
chain: B1 chain with Q33L, E46D, L47V, M68V, G71A, L85Q, C87Y, R93K
B3: variant CD80 IgV-Fc H18Y/A26E/Q33L/E35D/M47L/L85Q (Fc fusion, not shown: a dimerising Fc or GST)
chain: B1 chain with H18Y, A26E, Q33L, E46D, M68V, G71A, L85Q, C87Y, R93K
B4: variant CD80 IgV-Fc Q33L/E35D/M47I/L85Q (Fc fusion, not shown: a dimerising Fc or GST)
chain: B1 chain with Q33L, E46D, L47I, M68V, G71A, L85Q, C87Y, R93K
B5: variant CD80 IgV-Fc H18Y/Q33L/E35D/M47I (Fc fusion, not shown: a dimerising Fc or GST)
chain: B1 chain with H18Y, Q33L, E46D, L47I, M68V, G71A, C87Y, R93K
B6: variant CD80 IgV-Fc Y31S/E35D/M47L/T79L/E88G (Fc fusion, not shown: a dimerising Fc or GST)
chain: B1 chain with Y31S, E46D, M68V, G71A, T79L, C87Y, E88G, R93K
B7: variant CD80 IgV-Fc E7D/E35D/M47I/L97Q (Fc fusion, not shown: a dimerising Fc or GST)
chain: B1 chain with E7D, E46D, L47I, M68V, G71A, C87Y, R93K, L97Q
B8: variant CD80 IgV-Fc A26E/Q33L/E35D/M47L (Fc fusion, not shown: a dimerising Fc or GST)
chain: B1 chain with A26E, Q33L, E46D, M68V, G71A, C87Y, R93K
B9: variant CD80 IgV-Fc E35D/M47L/L85Q (Fc fusion, not shown: a dimerising Fc or GST)
chain: B1 chain with E46D, M68V, G71A, L85Q, C87Y, R93K
B10: variant CD80 IgV-Fc Q27H/Q33L/E35D/M47V/N55D/L85Q/K89N (Fc fusion, not shown: a dimerising Fc or GST)
chain: VIHVTKEVKEVATLSCGHNVSVEELAHTRIYWLKDKKMVLTMMSGDVNIWPEYKDRTIFDITNNLSIVILALRPSDEGTYECVVQKYENDAFKREHLAEVTLSVKAD
B11: variant CD80 IgV-Fc A26E/Q33L/E35D/M47L/L85Q (Fc fusion, not shown: a dimerising Fc or GST)
chain: B10 chain with A26E, H27Q, V47L, D55N, N89K
B12: variant CD80 IgV-Fc A26E/Q33R/E35D/M47L/L85Q (Fc fusion, not shown: a dimerising Fc or GST)
chain: B10 chain with A26E, H27Q, L33R, V47L, D55N, N89K
B13: variant CD80 IgV-Fc A26E/Q33R/E35D/M47L/L85Q/K86E (Fc fusion, not shown: a dimerising Fc or GST)
chain: B10 chain with A26E, H27Q, L33R, V47L, D55N, K86E, N89K
notes: Fc fusions are described in general as dimers
B14: variant CD80 IgV-Fc E35D/M47I/E77A/L85Q/R94W (Fc fusion, not shown: a dimerising Fc or GST)
chain: B10 chain with H27Q, L33Q, V47I, D55N, E77A, N89K, R94W
B15: variant CD80 IgV-Fc A26E/E35D/M43T/M47L/L85Q/R94Q (Fc fusion, not shown: a dimerising Fc or GST)
chain: B10 chain with A26E, H27Q, L33Q, M43T, V47L, D55N, N89K, R94Q
B16: variant CD80 IgV-Fc H18Y/V20A/Q33L/E35D/M47V/Y53F (Fc fusion, not shown: a dimerising Fc or GST)
chain: B10 chain with H18Y, V20A, H27Q, Y53F, D55N, Q85L, N89K
B17: variant CD80 IgV-Fc V22A/E23D/Q33L/E35D/M47V (Fc fusion, not shown: a dimerising Fc or GST)
chain: B10 chain with V22A, E23D, H27Q, D55N, Q85L, N89K
B18: variant CD80 IgV-Fc H18Y/E35D/M47L (Fc fusion, not shown: a dimerising Fc or GST)
chain: B1 chain with H18Y, E46D, M68V, G71A, C87Y, R93K
B19: variant CD80 IgV-Fc Q33L/E35D/T41S/M43I (Fc fusion, not shown: a dimerising Fc or GST)
chain: B10 chain with H27Q, T41S, M43I, V47M, D55N, Q85L, N89K
B20: variant CD80 IgV-Fc Q33L/E35D/M47I/T62N/L85Q (Fc fusion, not shown: a dimerising Fc or GST)
chain: B10 chain with H27Q, V47I, D55N, T62N, N89K
B21: variant CD80 IgV-Fc H18L/V22A/E35D/M47L/N48T/L85Q (Fc fusion, not shown: a dimerising Fc or GST)
chain: B10 chain with H18L, V22A, H27Q, L33Q, V47L, N48T, D55N, N89K

target: T1, human PD-L1 (huPD-L1), full-length, stably expressed on CHO cells (human, UniProt Q9NZQ7 19-290); assay: flow cytometry, CHO cells expressing huPD-L1
T1 construct: whole, on cells
T1 sequence (Q9NZQ7 19-290): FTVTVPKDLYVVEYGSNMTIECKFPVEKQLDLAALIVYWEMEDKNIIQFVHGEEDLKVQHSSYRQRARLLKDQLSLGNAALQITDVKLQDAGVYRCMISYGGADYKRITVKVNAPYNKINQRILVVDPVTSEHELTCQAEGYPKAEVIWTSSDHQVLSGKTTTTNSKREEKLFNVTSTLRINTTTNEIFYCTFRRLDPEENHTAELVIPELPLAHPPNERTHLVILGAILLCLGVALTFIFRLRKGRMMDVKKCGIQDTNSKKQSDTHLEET

| Binder | MFI at 33.3 nM [MFI] |
| --- | --- |
| B1 | 24300 |

target: T2, human CTLA4 (full-length, expressed on CHO cells) (human, UniProt P16410 36-223); assay: flow cytometry, CHO cells expressing huCTLA4, PE anti-human Fc
T2 construct: also called huCTLA4
T2 sequence (P16410 36-223): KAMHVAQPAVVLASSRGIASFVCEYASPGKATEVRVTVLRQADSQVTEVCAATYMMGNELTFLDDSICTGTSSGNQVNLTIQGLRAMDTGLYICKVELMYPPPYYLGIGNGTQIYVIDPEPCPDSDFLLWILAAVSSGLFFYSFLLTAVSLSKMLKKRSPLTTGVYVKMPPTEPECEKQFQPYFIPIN

| Binder | MFI at 33.3 nM [MFI] |
| --- | --- |
| B2 | 75400 |
| B3 | 2090 |
| B4 | 20500 |
| B5 | 5540 |
| B6 | 1100 |
| B7 | 271000 |
| B8 | 1320 |
| B9 | 336000 |
| B10 | 56100 |
| B11 | 1170 |
| B12 | 1280 |
| B13 | 1280 |
| B14 | 247000 |
| B15 | 278000 |
| B16 | 2880 |
| B17 | 3640 |
| B18 | 284000 |
| B19 | 6390 |
| B20 | 1660 |
| B21 | 374000 |

target: T3, human PD-L1 (full-length, expressed on CHO cells) (human, UniProt Q9NZQ7 19-290); assay: flow cytometry, CHO cells expressing huPD-L1, PE anti-human Fc
T3 construct: also called huPD-L1; CD274
T3 sequence (Q9NZQ7 19-290): as the sequence (Q9NZQ7 19-290) above

| Binder | MFI at 33.3 nM [MFI] |
| --- | --- |
| B2 | 47400 |
| B3 | 76600 |
| B4 | 63900 |
| B5 | 47800 |
| B6 | 38900 |
| B7 | 14600 |
| B8 | 60900 |
| B9 | 33200 |
| B10 | 14800 |
| B11 | 62700 |
| B12 | 81500 |
| B13 | 76000 |
| B14 | 64500 |
| B15 | 68100 |
| B16 | 121000 |
| B17 | 75500 |
| B18 | 44200 |
| B19 | 44900 |
| B20 | 72600 |
| B21 | 98100 |

target: T4, CD28 (endogenously expressed on Jurkat/IL2 reporter cells) (human, UniProt P10747 19-220); assay: flow cytometry MFI at 33.3 nM relative to WT CD80 ECD-Fc (R&D), Jurkat cells
T4 construct: Endogenous CD28 of Jurkat cells; also called human CD28

| Binder | Fold change to WT [fold] |
| --- | --- |
| B2 | 0.04 |
| B3 | 0.04 |
| B4 | 0.04 |
| B5 | 0.04 |
| B6 | 0.04 |
| B7 | 0.04 |
| B8 | 0.04 |
| B9 | 0.08 |
| B10 | 0.04 |
| B11 | 0.04 |
| B12 | 0.03 |
| B13 | 0.04 |
| B14 | 0.04 |
| B15 | 0.03 |
| B16 | 0.03 |
| B17 | 0.04 |
| B18 | 0.66 |
| B20 | 0.04 |

target: T4, CD28 (endogenously expressed on …); assay: flow cytometry, Jurkat/IL2 reporter cells (endogenous CD28), PE anti-human Fc

| Binder | MFI at 33.3 nM [MFI] |
| --- | --- |
| B2 | 268 |
| B3 | 272 |
| B4 | 287 |
| B5 | 295 |
| B6 | 278 |
| B7 | 273 |
| B8 | 271 |
| B9 | 646 |
| B10 | 269 |
| B11 | 274 |
| B12 | 264 |
| B13 | 275 |
| B14 | 272 |
| B15 | 260 |
| B16 | 260 |
| B17 | 274 |
| B18 | 5070 |
| B20 | 284 |

target: T2, human CTLA4 (full-length, expressed on …); assay: flow cytometry MFI at 33.3 nM relative to WT CD80 ECD-Fc (R&D), CHO/huCTLA4 cells

| Binder | Fold change to WT CD80 [fold] |
| --- | --- |
| B2 | 0.42 |
| B3 | 0.01 |
| B4 | 0.11 |
| B5 | 0.03 |
| B6 | 0.01 |
| B7 | 1.52 |
| B8 | 0.01 |
| B9 | 1.88 |
| B10 | 0.31 |
| B11 | 0.01 |
| B12 | 0.01 |
| B13 | 0.01 |
| B14 | 1.38 |
| B15 | 1.56 |
| B16 | 0.02 |
| B17 | 0.02 |
| B18 | 1.59 |
| B19 | 0.04 |
| B20 | 0.01 |
| B21 | 2.09 |

target: T3, human PD-L1 (full-length, expressed on …); assay: flow cytometry MFI at 33.3 nM relative to WT CD80 ECD-Fc (R&D), CHO/huPD-L1 cells

| Binder | Fold change to WT [fold] |
| --- | --- |
| B2 | 5.97 |
| B3 | 9.64 |
| B4 | 8.05 |
| B5 | 6.02 |
| B6 | 4.9 |
| B7 | 1.84 |
| B8 | 7.67 |
| B9 | 4.18 |
| B10 | 1.86 |
| B11 | 7.89 |
| B12 | 10.3 |
| B13 | 9.56 |
| B14 | 8.12 |
| B15 | 8.57 |
| B16 | 15.2 |
| B17 | 9.51 |
| B18 | 5.56 |
| B19 | 5.66 |
| B20 | 9.14 |
| B21 | 12.3 |

target: T3, human PD-L1 (full-length, expressed on …); assay: flow cytometry, MFI on CHO/huPD-L1 cells over MFI on Jurkat (CD28) cells, 33.3 nM

| Binder | Ratio of PDL1:CD28 [ratio] |
| --- | --- |
| B2 | 177 |
| B3 | 282 |
| B4 | 222 |
| B5 | 162 |
| B6 | 140 |
| B7 | 54 |
| B8 | 225 |
| B9 | 51 |
| B10 | 55 |
| B11 | 229 |
| B12 | 309 |
| B13 | 276 |
| B14 | 238 |
| B15 | 262 |
| B16 | 463 |
| B17 | 275 |
| B18 | 9 |
| B19 | 104 |
| B20 | 256 |
| B21 | 226 |
